Our source for the EC50 values is article PMC10883291.

Broadly, the EC50 is the concentration needed to bring the measured effect to its halfway point. Low readings indicate an effect from little substance, high ones a need for much substance.

What all share (assay): FRET or BRET; time-resolved FRET (Cisbio); FcγRs expressed on HEK293 cells (Tb donor cells); IgG-d2 acceptor conjugate displaced by the test antibodies; EC50 by the manufacturer's protocol
In general terms: BRET reads energy transfer from a luciferase to a nearby fluorophore.

In test [1] the target is FcγR3A (CD16aF158) (human) (UniProt P08637).
The target in another test is FcγR1 (CD64) (human) (UniProt P12314).
The target of test [2] is FcγR2A (CD32aH131) (human) (UniProt P12318).
For another test, the target named is FcγR2B (human) (UniProt P31994).
Test [3] concerns the target FcγR2A (CD32aR131) (human).

Sequence of FcγR2A (CD32aH131) (human) (P12318 34-317): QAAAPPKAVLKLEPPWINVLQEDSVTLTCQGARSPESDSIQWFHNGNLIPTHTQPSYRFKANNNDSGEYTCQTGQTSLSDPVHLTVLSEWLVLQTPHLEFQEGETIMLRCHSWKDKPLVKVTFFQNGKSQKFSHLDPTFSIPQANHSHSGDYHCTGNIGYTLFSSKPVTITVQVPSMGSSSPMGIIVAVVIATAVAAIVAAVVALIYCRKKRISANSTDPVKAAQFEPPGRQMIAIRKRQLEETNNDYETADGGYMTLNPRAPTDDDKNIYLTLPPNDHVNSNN
Sequence of FcγR1 (CD64) (human) (P12314 16-374): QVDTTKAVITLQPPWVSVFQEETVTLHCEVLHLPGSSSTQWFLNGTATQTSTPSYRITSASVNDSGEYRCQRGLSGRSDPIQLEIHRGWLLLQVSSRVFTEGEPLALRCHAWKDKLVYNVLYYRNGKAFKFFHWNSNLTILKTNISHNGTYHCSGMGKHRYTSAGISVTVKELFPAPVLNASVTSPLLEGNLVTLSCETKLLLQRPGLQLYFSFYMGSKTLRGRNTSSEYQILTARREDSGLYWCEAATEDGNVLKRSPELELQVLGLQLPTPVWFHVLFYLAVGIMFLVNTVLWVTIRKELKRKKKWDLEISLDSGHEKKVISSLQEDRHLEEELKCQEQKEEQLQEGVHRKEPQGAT
Sequence of FcγR3A (CD16aF158) (human) (P08637 17-254): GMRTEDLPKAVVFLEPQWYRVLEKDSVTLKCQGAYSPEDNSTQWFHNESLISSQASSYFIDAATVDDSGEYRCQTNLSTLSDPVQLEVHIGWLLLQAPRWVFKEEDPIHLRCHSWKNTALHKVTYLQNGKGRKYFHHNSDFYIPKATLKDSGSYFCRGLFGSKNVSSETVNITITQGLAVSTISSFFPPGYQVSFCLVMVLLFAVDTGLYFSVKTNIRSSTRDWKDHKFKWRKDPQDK
Sequence of FcγR2A (CD32aR131) (human) (P12318 34-317 H167R): as the sequence (P12318 34-317) above, with H134R counted along it
Sequence of FcγR2B (human) (P31994 43-310): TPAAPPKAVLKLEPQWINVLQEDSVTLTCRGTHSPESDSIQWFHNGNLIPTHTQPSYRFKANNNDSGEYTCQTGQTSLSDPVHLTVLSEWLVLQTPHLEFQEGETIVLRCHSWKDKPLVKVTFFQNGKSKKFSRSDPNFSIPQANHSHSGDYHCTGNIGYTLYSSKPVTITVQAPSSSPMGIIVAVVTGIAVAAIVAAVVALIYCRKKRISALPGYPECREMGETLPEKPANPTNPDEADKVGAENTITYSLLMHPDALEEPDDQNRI

On to BMS-986351 (antibody), for which the EC50 in test [1] came to 1200 nM; with FcγR1 (CD64) (human) it was 0.8 nM; in test [2], 200 nM; with FcγR2B (human) it was 2480 nM.

Regarding Rituximab (antibody), the concentration for a half-maximal effect (EC50) with FcγR1 (CD64) (human) came to 0.8 nM; in test [3] it was 194 nM; in test [2], 361 nM.
